Consider four sequences from patent US10562947B2, “Compositions and methods for preventing or treating diseases, conditions or processes characterized by aberrant fibroblast proliferation and extracellular matrix deposition” (MOERAE MATRIX, INC., priority 2011, dated 2020).

Holding throughout (assay): Kinase Profiling Assay
Assay type in all cases: biochemical
Details in all cases: 100 μM peptide

For one test, the target named is CDK6/cyclinD3(h) (Homo sapiens, UniProt Q00534). The protocol:
(§1) Every kinase activity measurement was conducted in duplicate.
(§2) In addition to determining the IC50 of the compound, the specificity of MK2 inhibitory peptides was assessed by examining activities of all 266 human kinases available for testing in the Millipore kinase profiling service (Table 1).

The target of a further test is T1, Haspin(h) (Homo sapiens, UniProt Q8TF76).
T1 construct: purchased Millipore
T1 sequence (Q8TF76 1-798): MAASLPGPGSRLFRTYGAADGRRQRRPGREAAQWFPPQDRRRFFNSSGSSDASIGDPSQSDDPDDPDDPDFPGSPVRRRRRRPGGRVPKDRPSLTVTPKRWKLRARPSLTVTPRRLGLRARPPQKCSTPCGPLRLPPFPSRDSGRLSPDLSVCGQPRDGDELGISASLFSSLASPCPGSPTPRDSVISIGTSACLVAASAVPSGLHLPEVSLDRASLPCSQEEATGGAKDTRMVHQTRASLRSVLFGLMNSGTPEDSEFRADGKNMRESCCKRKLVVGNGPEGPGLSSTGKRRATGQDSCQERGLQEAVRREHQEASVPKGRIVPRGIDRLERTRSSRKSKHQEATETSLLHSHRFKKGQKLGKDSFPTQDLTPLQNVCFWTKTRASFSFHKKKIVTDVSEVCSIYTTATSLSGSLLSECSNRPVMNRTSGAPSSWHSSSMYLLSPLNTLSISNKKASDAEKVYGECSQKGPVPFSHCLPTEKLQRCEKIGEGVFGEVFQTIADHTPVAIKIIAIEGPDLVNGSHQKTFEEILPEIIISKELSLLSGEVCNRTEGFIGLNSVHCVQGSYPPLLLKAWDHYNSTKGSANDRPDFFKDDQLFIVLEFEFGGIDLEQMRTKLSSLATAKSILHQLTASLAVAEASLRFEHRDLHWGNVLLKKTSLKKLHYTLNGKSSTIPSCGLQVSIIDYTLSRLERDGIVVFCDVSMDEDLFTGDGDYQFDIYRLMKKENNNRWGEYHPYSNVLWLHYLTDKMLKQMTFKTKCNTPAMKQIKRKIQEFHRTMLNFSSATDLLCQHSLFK
The method, then: as §1, §2

For a further test, the target named is T2, MST1(h) (Homo sapiens, UniProt Q13043).
T2 sequence (Q13043 1-487): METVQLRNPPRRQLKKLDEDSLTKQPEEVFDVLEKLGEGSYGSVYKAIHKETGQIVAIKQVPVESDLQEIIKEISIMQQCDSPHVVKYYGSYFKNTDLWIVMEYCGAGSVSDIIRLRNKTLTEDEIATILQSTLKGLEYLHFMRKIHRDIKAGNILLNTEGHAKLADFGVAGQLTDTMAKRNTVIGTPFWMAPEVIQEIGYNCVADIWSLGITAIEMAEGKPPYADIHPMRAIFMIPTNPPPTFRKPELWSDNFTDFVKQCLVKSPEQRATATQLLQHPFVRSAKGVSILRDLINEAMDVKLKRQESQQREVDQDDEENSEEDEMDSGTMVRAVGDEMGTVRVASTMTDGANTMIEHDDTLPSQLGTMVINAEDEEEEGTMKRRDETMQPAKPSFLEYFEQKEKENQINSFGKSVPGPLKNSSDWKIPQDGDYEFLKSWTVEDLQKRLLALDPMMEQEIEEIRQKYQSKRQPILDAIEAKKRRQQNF
The method, then:
as §1, §2

A further test addresses BTK(h) (Homo sapiens, UniProt Q06187). The protocol: as §1, §2
A further test addresses T3, PKCμ(h) (Homo sapiens, UniProt Q15139).
T3 construct: purchased Millipore (IC50 Profiler Express service)
T3 sequence (Q15139 1-912): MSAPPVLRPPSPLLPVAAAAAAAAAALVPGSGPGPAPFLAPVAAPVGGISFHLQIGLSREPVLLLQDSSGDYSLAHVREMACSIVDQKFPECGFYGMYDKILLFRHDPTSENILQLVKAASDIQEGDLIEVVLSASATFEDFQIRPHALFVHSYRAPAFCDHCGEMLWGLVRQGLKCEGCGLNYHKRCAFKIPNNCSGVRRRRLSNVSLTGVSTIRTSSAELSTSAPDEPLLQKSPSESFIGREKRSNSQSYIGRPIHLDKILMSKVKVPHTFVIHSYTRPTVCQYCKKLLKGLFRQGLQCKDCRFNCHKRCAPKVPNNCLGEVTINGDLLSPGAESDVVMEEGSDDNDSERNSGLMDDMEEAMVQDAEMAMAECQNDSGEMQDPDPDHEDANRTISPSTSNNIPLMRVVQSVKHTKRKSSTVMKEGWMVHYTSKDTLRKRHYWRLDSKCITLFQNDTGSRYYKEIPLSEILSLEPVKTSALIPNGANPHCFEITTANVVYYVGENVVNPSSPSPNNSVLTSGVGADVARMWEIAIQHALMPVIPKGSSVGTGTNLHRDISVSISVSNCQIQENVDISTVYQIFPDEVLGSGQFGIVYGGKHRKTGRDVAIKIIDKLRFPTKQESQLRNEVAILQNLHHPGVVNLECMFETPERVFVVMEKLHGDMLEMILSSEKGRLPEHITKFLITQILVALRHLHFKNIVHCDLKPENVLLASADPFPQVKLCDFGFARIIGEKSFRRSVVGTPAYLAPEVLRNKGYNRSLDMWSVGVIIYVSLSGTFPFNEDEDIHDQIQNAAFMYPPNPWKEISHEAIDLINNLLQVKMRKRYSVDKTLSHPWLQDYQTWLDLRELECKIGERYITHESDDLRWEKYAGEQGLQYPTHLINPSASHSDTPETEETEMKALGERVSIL
The method, then: as §1, §2

The next test deals with BRK(h) (Homo sapiens, UniProt Q13882). The protocol: as §1, §2
Chain of BRK(h) (Q13882 whole entry): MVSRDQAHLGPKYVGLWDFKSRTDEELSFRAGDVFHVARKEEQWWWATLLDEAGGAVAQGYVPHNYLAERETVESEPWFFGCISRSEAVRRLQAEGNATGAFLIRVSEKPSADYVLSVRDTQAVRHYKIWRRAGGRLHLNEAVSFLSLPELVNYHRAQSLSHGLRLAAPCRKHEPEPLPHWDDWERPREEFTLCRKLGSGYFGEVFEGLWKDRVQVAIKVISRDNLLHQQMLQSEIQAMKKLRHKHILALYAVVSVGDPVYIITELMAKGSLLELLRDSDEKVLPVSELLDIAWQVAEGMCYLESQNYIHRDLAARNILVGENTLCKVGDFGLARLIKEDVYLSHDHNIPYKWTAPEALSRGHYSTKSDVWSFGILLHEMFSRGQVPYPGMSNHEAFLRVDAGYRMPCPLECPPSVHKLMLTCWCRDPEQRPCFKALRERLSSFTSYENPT
A further test addresses T4, ROCK-I(h) (Homo sapiens, UniProt Q13464).
T4 construct: purchased Millipore (IC50 Profiler Express service)
The protocol: as §1, §2

T4 sequence (Q13464 whole entry): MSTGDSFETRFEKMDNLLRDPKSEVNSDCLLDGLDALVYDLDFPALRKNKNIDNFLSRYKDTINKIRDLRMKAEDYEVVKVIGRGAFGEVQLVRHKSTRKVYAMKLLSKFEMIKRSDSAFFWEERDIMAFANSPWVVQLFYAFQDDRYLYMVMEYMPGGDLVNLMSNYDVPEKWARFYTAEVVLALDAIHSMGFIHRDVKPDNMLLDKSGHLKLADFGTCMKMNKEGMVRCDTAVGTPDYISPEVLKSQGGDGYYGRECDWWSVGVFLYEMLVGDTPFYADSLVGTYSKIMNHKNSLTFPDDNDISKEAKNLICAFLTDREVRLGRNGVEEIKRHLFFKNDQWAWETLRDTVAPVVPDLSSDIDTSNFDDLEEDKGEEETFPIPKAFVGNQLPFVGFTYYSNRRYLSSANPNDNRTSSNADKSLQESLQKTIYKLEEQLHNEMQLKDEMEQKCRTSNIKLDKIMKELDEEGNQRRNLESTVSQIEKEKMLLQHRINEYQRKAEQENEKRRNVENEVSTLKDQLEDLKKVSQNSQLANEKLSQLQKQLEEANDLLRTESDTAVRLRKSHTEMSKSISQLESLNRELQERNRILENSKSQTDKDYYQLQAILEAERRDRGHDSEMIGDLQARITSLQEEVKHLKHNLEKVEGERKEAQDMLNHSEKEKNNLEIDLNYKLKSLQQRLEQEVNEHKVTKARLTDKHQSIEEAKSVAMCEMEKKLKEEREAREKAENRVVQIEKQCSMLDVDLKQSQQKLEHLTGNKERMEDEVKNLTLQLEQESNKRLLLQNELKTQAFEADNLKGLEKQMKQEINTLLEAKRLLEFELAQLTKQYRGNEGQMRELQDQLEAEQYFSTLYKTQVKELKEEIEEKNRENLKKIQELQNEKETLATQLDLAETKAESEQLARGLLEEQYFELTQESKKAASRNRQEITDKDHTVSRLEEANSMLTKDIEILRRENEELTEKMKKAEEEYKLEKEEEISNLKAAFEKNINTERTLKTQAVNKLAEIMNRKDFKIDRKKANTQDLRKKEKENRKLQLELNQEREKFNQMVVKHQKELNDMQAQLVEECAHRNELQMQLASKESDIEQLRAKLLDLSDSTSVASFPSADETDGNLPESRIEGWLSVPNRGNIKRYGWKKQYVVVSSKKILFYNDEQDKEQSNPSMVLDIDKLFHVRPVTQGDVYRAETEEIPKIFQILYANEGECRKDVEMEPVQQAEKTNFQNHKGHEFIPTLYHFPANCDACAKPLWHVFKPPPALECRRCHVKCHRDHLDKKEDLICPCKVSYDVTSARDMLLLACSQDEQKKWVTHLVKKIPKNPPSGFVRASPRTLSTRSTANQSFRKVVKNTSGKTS
Chain of CDK6/cyclinD3(h) (Q00534 whole entry): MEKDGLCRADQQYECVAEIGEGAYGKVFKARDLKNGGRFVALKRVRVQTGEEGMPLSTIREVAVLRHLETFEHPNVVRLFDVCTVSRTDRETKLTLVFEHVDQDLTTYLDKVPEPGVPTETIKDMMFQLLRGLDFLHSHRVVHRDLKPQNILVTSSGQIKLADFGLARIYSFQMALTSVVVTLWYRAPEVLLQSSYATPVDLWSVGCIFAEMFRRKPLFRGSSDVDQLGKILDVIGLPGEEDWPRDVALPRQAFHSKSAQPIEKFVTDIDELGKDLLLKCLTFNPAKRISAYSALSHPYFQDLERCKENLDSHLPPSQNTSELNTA
Chain of CDK6/cyclinD3(h) (P30281 whole entry partner): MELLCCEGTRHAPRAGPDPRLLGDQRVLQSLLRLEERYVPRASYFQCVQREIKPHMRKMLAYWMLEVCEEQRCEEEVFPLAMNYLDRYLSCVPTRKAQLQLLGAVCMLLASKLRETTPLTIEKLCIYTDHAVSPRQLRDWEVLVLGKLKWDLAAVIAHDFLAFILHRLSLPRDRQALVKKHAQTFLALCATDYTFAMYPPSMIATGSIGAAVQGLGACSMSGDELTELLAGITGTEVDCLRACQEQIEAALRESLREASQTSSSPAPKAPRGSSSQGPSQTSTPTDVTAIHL
Chain of BTK(h) (Q06187 whole entry): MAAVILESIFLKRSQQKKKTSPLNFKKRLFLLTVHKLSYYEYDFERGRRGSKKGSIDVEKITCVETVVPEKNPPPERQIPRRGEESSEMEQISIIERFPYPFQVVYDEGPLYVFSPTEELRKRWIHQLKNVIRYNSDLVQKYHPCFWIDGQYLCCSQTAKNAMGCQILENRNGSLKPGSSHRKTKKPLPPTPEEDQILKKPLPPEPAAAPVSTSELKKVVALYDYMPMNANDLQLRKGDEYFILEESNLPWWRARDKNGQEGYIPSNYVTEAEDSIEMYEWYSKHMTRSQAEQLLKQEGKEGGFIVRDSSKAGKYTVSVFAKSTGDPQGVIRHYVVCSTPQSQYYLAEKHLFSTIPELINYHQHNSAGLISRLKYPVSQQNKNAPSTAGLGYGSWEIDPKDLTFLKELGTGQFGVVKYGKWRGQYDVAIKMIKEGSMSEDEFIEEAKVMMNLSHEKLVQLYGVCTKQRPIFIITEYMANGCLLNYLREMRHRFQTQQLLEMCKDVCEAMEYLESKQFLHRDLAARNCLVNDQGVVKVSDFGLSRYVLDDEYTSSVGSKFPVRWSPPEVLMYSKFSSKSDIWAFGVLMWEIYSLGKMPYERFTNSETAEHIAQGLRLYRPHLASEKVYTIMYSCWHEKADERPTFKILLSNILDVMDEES

In the case of “YARAAARQARAKALNRQLGVA (Mammalian) [MMI-0200]”, the “CDK6/cyclinD3(h) % activity” value with CDK6/cyclinD3(h) was found to be 100%. In addition, the “Haspin(h) % activity” value in the test with Haspin(h) was 71%. In addition, the “MST1(h) % activity” value with MST1(h) is 72%. Further, the “BTK(h) % activity” value with BTK(h) worked out at 100%. In addition, in the test with PKCμ(h), the “PKCμ(h) % activity” value turned out to be 73%. Further, in the test with BRK(h), the “BRK(h) % activity” value came to 127%.

Consider “HRRIKAWLKKIKALARQLGVAA (Mammalian) [MMI-0500]”, for which, in the test with CDK6/cyclinD3(h), the “CDK6/cyclinD3(h) % activity” value is recorded as 23%. Besides, the “ROCK-I(h) % activity” value with ROCK-I(h) amounted to 17%. Further, the “Haspin(h) % activity” value with Haspin(h) is listed as 25%. In the test with MST1(h), the “MST1(h) % activity” value turned out to be 3%. Also, the “BTK(h) % activity” value in the test with BTK(h) was 18%. In the test with PKCμ(h), the “PKCμ(h) % activity” value came out at 10%. Besides, the “BRK(h) % activity” value with BRK(h) turned out to be 41%.

For the sequence KAFAKLAARLYRKALARQLGVAA [MMI-0400], the “CDK6/cyclinD3(h) % activity” value with CDK6/cyclinD3(h) was 85%. Also, in the test with ROCK-I(h), the “ROCK-I(h) % activity” value stood at 73%. Besides, in the test with Haspin(h), the “Haspin(h) % activity” value stood at 36%. Also, in the test with MST1(h), the “MST1(h) % activity” value is 6%. Moreover, the “BTK(h) % activity” value in the test with BTK(h) is on record as 94%. In addition, the “PKCμ(h) % activity” value in the test with PKCμ(h) is reported as 14%. In addition, in the test with BRK(h), the “BRK(h) % activity” value came out at 18%.

Turning to FAKLAARLYRKALARQLGVAA [MMI-0300], the “CDK6/cyclinD3(h) % activity” value with CDK6/cyclinD3(h) is 86%. Besides, the “ROCK-I(h) % activity” value in the test with ROCK-I(h) stood at 79%. Also, the “Haspin(h) % activity” value with Haspin(h) is 48%. For the same sequence, in the test with MST1(h), the “MST1(h) % activity” value came out at 14%. The “PKCμ(h) % activity” value with PKCμ(h) came out at 22%. Also, the “BRK(h) % activity” value with BRK(h) amounted to 35%.
